Laboratory results reported in patent US20190322750A1 (Y BIOLOGICS, published 2019).

T1: ITGA6
T1 construct: unrelated antigen column; all antibodies give 0.5 to 0.6
T1 sequence (P23229 whole entry, species assumed, looked up): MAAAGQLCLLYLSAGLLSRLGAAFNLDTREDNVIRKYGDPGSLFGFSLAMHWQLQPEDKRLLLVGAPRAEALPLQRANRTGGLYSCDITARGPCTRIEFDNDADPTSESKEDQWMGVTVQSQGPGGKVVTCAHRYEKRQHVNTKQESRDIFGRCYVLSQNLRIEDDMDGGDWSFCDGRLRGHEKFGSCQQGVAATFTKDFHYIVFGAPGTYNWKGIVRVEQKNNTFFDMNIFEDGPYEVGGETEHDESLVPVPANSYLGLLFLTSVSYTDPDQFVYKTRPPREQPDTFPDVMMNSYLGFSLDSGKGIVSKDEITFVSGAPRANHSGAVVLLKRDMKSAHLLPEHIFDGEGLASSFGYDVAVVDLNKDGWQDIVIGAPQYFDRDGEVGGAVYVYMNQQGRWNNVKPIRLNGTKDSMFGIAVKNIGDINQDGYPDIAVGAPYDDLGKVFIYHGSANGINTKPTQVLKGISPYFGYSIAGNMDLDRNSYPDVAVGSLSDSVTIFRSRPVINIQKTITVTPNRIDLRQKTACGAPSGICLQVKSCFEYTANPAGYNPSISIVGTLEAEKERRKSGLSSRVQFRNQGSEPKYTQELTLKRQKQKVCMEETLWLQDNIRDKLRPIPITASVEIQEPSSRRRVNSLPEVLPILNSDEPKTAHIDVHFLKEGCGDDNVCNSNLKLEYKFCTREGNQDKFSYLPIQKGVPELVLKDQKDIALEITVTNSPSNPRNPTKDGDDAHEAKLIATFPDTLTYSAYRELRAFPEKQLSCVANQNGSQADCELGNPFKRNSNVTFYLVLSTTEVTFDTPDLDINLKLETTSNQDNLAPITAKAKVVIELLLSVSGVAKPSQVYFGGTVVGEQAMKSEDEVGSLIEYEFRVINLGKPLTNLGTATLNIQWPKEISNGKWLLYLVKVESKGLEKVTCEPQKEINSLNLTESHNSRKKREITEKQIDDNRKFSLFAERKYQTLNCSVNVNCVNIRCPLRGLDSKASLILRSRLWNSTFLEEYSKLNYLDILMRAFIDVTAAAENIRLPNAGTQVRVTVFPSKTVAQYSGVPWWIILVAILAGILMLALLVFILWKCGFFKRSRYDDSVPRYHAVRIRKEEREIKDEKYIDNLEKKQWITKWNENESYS

B1: PDL1-16E12 (LS/4C9) (antibody, V domains shown)
VH: QMQLVQSGAEVKKPGSSVKVSCKASGGTFSSYAISWVRQAPGQGLEWMGRIIPILGIANYAQKFQGRVTITADKSTSTAYMELSSLRSEDTAVYYCAKPRDGYNLVAFDIWGQGTMVTVSS
VL: QLVLTQPPSVSGAPGQRVTISCTGGSSNIGAGYDVHWYQQLPGTAPKLLLFGNTNRPSGVPGRFSGSKSGSSASLAITGLQSDDEADYYCQSYDSSLGGSVIGTGTKVTVL
notes: also called PD-L1-16E12-4C9
B2: PDL1-16E12 (LS/4H8) (antibody, V domains shown)
VH: B1 VH
VL: QLVLTQPSSVSGAPGQRVTISCTGSSSNIGAGYDVHWYQQLPGTAPKLLIYGNSNRPSGVPDRFSGSKSGTSASLAITGLQAEDEADYYCQSYDSSLSGSGVFGTGTKVTVL
notes: also called PD-L1-16E12-4H8
B3: PDL1-30B1 (antibody, V domains shown)
VH: QVQLVESGGGVVQPGRSLRLSCAASGFTFSSYAMHWVRQGPGKGLEWVAVISYDGSNEFYADSVKGRFTISRDNSKNTLYLQMNSLRAEDTAVYYCARGDYNGVYMDVWGQGTTVTVSS
VL: DIVMTQTPLSLSVTPGQPASISCKSSQSLLHSDGKTYLYWYLQKPGQSPQLLIYEVSKRFSGVPDRFSGSGSGTDFTLKIGRVEAEDVGVYYCMQGLHLPYTFGQGTKLEIK
notes: Only FR/CDR pieces are tied to the clone
B4: PDL1-31D9 (antibody, V domains shown)
VH: QMQLVESGGGLVQPGGSLRLSCSASGFTFSSYVMHWVRQAPGKGLEYVSAISSNGGSTYYADSVKGRFTISRDNSKNTLYLQMSSLRSEDTAVYYCAREHFSTYSYGVDVWGPGTTVTVSS
VL: DIVMTQTPLSLPVTPGEPASISCRSSQSLLDSDDGNTYLDWYLQKPGQSPQLLIYMISFRASGVPDRFSGSGSGTDFTLKISRVEAEDSGIYYCMQRVEFPYTFGQGTKLEIK
notes: as for B3
B5: PDL1-22B10 (antibody, V domains shown)
VH: QVQLVQSGAEVKKPGSSVKVSCRASGGTFSSYAISWVRQAPGQGLEWMGRIIPILGIANYAQKFQGRVTITADKSTSTAYMELSSLRSEDTAVYYCARDFVLSGSATVFDPWGQGTLVTVSS
VL: QFVLTQPPSVSGAPGQRVTISCTGSSTNIGAGYDVHWYQQLPGKAPKVVIYGNSNRPSGVLDRFSASKSATSASLAITGLQAEDEADYYCQSYDSSLSGYVFGTGTKVTVL
notes: as for B3
B6: PDL1-23E10 (scFv, V domains shown)
VH: QMQLVESGAEVKKPGSSVKVSCKVSGENFRSHAISWVRQAPGQGLEWMGRIIPIVGLADYPQKFQGRVTISADESTGTAYMDLSSLRSEDTAVYYCVTGRPPWHWGQGILITVSS
VL: QLVLTQPPSVSGAPGQRVTISCTGSSSNIGAGYDVHWYQQLPGTAPKLLIYSNRNRPSGVPDRFSGSKSGTSASLAITGLQAEDEADYYCQSYDSSLSGPNYVFGTGTKVTVL
B7: PDL1-31E6 (antibody, V domains shown)
VH: QVQLVQSGAEVKKPGSSVKVSCKASGGTFSSYAISWVRQAPGQGLEWMGGIIPIFGTANYAQKFQGRVTITADESTSTAYMELSSLRSEDTAVYYCARGGRSFGAFDSWGQGALVTVSS
VL: DIQMTQSPATLSLSPGERATLSCTASQSISSYLAWYQQKPGQAPRLLIYDSSNRATGIPARFSGSGSGTAFTLTISSLEPEDFAVYFCQQRGQWPLTFGGGTKVDIK
notes: as for B3

Columns and labels:
[1] = molecular target: T2, human PD-L1 over-expressed on HEK293E cells (human, UniProt Q9NZQ7 19-290); assay: flow cytometry on HEK293E/PD-L1 cells, FITC anti-human IgG, serial dilutions; fit table
T2 construct: whole, on cells; also called human PD-L1 (NM_014143.2)
T2 sequence (Q9NZQ7 19-290): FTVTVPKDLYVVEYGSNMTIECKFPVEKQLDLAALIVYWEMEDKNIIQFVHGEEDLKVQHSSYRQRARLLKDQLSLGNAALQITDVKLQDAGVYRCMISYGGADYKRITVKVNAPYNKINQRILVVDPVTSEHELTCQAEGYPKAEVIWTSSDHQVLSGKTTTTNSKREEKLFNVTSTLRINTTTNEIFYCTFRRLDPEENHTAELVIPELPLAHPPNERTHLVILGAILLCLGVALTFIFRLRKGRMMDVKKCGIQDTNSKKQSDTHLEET
Procedure: 0.5 to 1×10⁶ cells per sample were prepared from the transformation cell pools highly expressing human PD-L1, and antibodies were serially diluted at a constant dilution rate and reacted with the prepared cells at 4° C. for 20 minutes. Then, the cells were washed three times with PBS (#LB001-02, Welgene) containing 2% fetal bovine serum and reacted at 4° C. for 20 minutes with an anti-human IgG antibody (#FI-3000, Vectorlabs) conjugated with a FITC (fluorescein isothiocyanate) fluorescent substance. Then, the cells were subjected to the same washing process as above and then suspended in 0.5 ml of PBS containing 2% FBS (#26140-079, Thermo Fisher) with an FACSCanto II flow cytometer (BD Biosciences, USA) as a flow cytometer (Table 11).

PD-L1-hFc = molecular target: T3, PD-L1-hFc (human, UniProt Q9NZQ7 19-238); assay: kinetics on PD-L1-hFc (legend paragraph 40; text names ProteOn XPR36, the sheet's sensorgrams have a nm axis)
T3 construct: extracellular domain; Made in HEK-293F cells, protein A purified; also called PD-L1 antigen; PD-L1 protein
T3 sequence (Q9NZQ7 other isoform, or with tags, fused parts or gaps limits assumed): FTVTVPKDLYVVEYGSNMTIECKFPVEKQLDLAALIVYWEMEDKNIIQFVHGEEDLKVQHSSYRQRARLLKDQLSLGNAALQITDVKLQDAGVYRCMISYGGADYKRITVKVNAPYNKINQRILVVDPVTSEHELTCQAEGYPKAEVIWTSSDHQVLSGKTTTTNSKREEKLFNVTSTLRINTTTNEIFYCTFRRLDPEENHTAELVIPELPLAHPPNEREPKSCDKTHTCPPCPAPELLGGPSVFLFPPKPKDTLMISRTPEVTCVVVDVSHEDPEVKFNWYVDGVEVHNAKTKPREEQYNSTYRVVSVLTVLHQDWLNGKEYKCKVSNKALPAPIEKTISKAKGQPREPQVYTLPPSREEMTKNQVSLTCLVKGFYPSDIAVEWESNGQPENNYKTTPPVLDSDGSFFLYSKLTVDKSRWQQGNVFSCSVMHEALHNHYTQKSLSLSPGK

[2] = molecular target: T4, PD-L1 on CHO cell line highly expressing PD-L1 (PD-1/PD-L1 blockade bioassay kit, promega J1250) (UniProt Q9NZQ7 19-290, limits assumed); assay: cell-based or functional assay
T4 sequence (Q9NZQ7 19-290 limits assumed): as the sequence (Q9NZQ7 19-290) above

[3] = molecular target: T4, PD-L1 on CHO cell line highly …; assay: cell-based or functional assay; remark: listed apart in the source
M5 = assay: ELISA on coated antigen, column M5
Procedure: (§1) An antigen PD-L1 wild type (WT) or several mutants were coated at a density of 100 ng/well on a 96-well immunoplate at 4° C. for 16 hours and the wells were blocked with 4% skim milk dissolved in PBS. Each well was washed with 0.2 ml of PBS/T, and then a single clone scFv-phage (each […]) cultured for 16 hours was added in a dose of 100 μl to each well and reacted at room temperature for 2 hours. Again, each well was washed 4 times with 0.2 ml of PBS/T, and then the second antibody, anti-Fab, was diluted to 1/2000 and reacted at room temperature for 1 hour. After washing with 0.2 ml of PBS/T, color development was performed and absorbance was measured at 490 nm.

M3 = assay: ELISA on coated antigen, column M3
mouse PD-L1 protein = mouse PD-L1 protein (mouse, UniProt Q9EP73 19-238, limits assumed); assay: ELISA on coated antigen, column mPD-L1
mouse PD-L1 protein, sequence (Q9EP73 19-238 limits assumed): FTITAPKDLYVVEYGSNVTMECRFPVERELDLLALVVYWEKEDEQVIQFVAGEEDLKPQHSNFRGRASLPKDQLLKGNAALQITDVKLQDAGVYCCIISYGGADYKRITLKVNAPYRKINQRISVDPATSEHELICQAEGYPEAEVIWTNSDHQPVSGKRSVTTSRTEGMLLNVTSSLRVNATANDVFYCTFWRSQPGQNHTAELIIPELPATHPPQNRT
Procedure: as §1

M1 = assay: ELISA on coated antigen, column M1
Procedure: as §1

M6 = assay: ELISA on coated antigen, column M6
Procedure: as §1

M2 = assay: ELISA on coated antigen, column M2
Procedure: as §1

M7 = assay: ELISA on coated antigen, column M7
M8 = assay: ELISA on coated antigen, column M8
Procedure: as §1

ITGA6 = molecular target: T1, ITGA6; assay: ELISA on coated antigen, column ITGA6
M4 = assay: ELISA on coated antigen, column M4
Procedure: as §1

WT = molecular target: T5, WT (human, UniProt Q9NZQ7); assay: ELISA on coated antigen, column WT
T5 construct: recombinant; also called hPD-L1; antigen PD-L1 wild type (WT)
T5 sequence (Q9NZQ7 19-238 limits assumed): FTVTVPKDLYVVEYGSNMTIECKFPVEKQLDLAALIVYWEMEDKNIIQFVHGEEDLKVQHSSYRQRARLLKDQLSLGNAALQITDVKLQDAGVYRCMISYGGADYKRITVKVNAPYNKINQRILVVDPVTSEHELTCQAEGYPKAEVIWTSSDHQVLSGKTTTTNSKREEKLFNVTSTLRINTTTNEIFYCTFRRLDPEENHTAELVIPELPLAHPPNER
Procedure: as §1

| Bmax [1] | Kd [1] [nM] | Kd (PD-L1-hFc) [nM] | koff (PD-L1-hFc) [s⁻¹] | kon (PD-L1-hFc) [M⁻¹ s⁻¹] | Average *EC50 [nM], PD-1/PD-L1 blockade bioassay [2] [nM] | EC50 (first run) [3] [nM] | EC50 (second run) [3] [nM] | absorbance at 490 nm (M5) | absorbance at 490 nm (M3) | absorbance at 490 nm (mouse PD-L1 protein) | binding result (mouse PD-L1 protein) | absorbance at 490 nm (M1) | absorbance at 490 nm (M6) | absorbance at 490 nm (M2) | absorbance at 490 nm (M7) | absorbance at 490 nm (M8) | absorbance at 490 nm (ITGA6) | absorbance at 490 nm (M4) | absorbance at 490 nm (WT) | Binder |
| --- | --- | --- | --- | --- | --- | --- | --- | --- | --- | --- | --- | --- | --- | --- | --- | --- | --- | --- | --- | --- |
| 4400 | 2.42 | 0.0158 | 2.62e-06 | 166000 | 0.39 | 0.4 | 0.4 | – | – | – | – | – | – | – | – | – | – | – | – | B1 |
| 3990 | 1.98 | < 0.001 | < 1e-07 | 240000 | 0.36 | 0.43 | 0.31 | – | – | – | – | – | – | – | – | – | – | – | – | B2 |
| – | – | – | – | – | – | – | – | 2.6 | 2.8 | 0.1 | no binding | 2.6 | 2.6 | 2.5 | 2.7 | 2.7 | 0.6 | 2.6 | – | B3 |
| – | – | – | – | – | – | – | – | 1.8 | 2.5 | 0.1 | no binding | 1.6 | 1.9 | 1.7 | 1.9 | 1.8 | 0.5 | 1.8 | 2.5 | B4 |
| – | – | – | – | – | – | – | – | 2.5 | 1 | 0.2 | no binding | 2.3 | 2.5 | 2.3 | 2.5 | 2.6 | 0.5 | 0.4 | 2.5 | B5 |
| – | – | – | – | – | – | – | – | 2.2 | 0.7 | 0.3 | no binding | 2.1 | 2.2 | 2.1 | 2.3 | 1 | 0.5 | 0.5 | 2.2 | B6 |
| – | – | – | – | – | – | – | – | 2.7 | 1 | 1.3 | – | 2.1 | 2.5 | 1.8 | 2.5 | 1.9 | 0.5 | 2.4 | 2.2 | B7 |
